From patent US20230295295A1 (published 2023)
Changes are numbered by the printed parent chain. Where “and” joins values, the source holds several entries; their conditions need not be identical. Equal entries are not always repeated.

Key:
[1] = biological target: T1, Human LAG-3 expressed on cells (human, UniProt P18627 23-525); test: cell-based or functional assay
T1 sequence (looked up): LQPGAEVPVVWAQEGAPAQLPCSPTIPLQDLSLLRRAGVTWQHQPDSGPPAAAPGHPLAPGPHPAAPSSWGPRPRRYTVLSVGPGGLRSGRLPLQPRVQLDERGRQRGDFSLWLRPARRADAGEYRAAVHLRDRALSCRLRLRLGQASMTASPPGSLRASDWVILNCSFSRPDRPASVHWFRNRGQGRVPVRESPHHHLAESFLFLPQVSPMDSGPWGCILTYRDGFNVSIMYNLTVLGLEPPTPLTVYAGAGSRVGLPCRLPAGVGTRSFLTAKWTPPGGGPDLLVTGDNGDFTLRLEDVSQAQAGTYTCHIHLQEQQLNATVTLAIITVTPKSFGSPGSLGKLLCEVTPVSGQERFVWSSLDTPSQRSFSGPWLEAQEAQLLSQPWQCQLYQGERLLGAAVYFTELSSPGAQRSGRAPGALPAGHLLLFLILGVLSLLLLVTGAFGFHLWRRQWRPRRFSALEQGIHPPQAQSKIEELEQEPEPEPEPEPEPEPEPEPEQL

[2] = biological target: T2, Recombinant human LAG-3 ECD-His6 (human, UniProt P18627 23-433); test: SPR Biacore T100, Anova comparison of KD on LAG-3 ECD-His6
T2 construct: also called LAG-3-His; recombinant human LAG-3-His
T2 sequence: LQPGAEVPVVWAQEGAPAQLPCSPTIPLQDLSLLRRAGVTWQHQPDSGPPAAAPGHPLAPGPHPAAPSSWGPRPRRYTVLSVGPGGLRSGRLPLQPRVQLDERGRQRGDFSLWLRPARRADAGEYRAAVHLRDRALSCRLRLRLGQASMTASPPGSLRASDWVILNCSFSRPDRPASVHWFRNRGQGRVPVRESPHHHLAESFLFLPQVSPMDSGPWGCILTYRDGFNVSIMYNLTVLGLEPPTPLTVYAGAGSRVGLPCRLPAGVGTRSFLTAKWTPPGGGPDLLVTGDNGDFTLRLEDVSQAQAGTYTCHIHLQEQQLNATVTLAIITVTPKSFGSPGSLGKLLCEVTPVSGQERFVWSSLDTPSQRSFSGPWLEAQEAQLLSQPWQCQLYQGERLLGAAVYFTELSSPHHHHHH
Protocol: (§1) Wild type fucosylated and afucosylated antibodies were compared for their ability to bind to recombinant human LAG-3 ECD with a C-terminal His6 (SEQ ID NO:51) using the Biacore® T100 (GE Healthcare®). Protein A was immobilised on a CM5 chip by primary amine coupling. This surface was then used to capture the humanised antibodies. Recombinant human LAG-3 ECD-His6 was then passed over the captured antibodies at 32, 8, 2, 0.5 and 0.125 nM and regeneration was carried out using 50 mM NaOH. The binding curves were double referenced with buffer injection (i.e. 0 nM) and the data was fitted to the T100 analysis software using the 1:1 model. The run was carried out at 25° C., using HBS-EP as the running buffer.
(§2) In order to investigate the statistical significance of this kinetic data, this experiment was repeated 3 times with the same batch of the four antibodies and the chimeric control. KD, ka and kd parameters were each log (base 10) transformed prior to separate statistical analyses. For each parameter, a mixed model analysis of variance (‘Anova’) was performed on transformed data, including terms for Run (random block effect) and Antibody.
(§3) From the Anova, geometric means were predicted for each antibody, along with statistically plausible ranges (95% confidence intervals) for each mean. Planned comparisons of antibodies were performed within the Anova. […]

[3] = biological target: T2, Recombinant human LAG-3 ECD-His6; test: SPR Biacore T100, Anova comparison of kd on LAG-3 ECD-His6
Protocol: as §1, §2, §3

[4] = biological target: T3, Recombinant cynomolgus macaque LAG-3 ECD-His6 (cynomolgus macaque, UniProt P18627 24-433 (human entry)); test: SPR Biacore T100, antibody captured on protein A, LAG-3 ECD-His6 analyte, 37 C, 1:1 model
T3 construct: made in house; also called cyno LAG-3
T3 chain: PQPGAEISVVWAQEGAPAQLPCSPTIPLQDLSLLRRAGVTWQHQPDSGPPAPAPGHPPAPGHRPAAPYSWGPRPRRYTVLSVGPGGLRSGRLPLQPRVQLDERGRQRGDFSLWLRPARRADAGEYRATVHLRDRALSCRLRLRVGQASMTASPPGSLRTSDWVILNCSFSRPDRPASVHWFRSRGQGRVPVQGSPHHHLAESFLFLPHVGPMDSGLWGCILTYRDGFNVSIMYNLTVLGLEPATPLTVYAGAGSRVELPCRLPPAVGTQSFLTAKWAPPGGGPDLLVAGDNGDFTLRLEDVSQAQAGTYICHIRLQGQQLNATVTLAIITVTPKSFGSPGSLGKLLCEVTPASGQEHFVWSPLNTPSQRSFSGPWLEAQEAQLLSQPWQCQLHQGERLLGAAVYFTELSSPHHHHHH
Protocol: (§4) The binding cross reactivity of anti-LAG-3 humanised antibodies for both cynomolgus macaque (cyno) and baboon recombinant LAG-3 ECD-His6 (SEQ ID NOs 52 and 53, respectively) was assessed using the Biacore® T100 (GE Healthcare®).
(§5) Protein A was immobilised on a CM5 chip by primary amine coupling. This surface was then used to capture the humanised antibodies. In-house generated recombinant cynomolgus macaque and baboon LAG-3 ECD-His6 were then passed over the captured antibodies and regeneration was carried out using 50 mM NaOH. LAG-3 ECD-His6 was passed over at 16, 4, 1, 0.25 and 0.0625 nM. The binding curves were double referenced with buffer injection (i.e. 0 nM) and the data was fitted to the T100 analysis software using the 1:1 model. The run was carried out at 37° C. using HBS-EP as the running buffer.

[5] = biological target: T4, Recombinant baboon LAG-3 ECD-His6 (baboon, UniProt P18627 24-433 (human entry)); test: as above
T4 construct: made in house
T4 chain: T3 chain with R188Q, G193E, A243T, A288V, D293N, H357R
Protocol: as §4, §5

[6] = biological target: T2, Recombinant human LAG-3 ECD-His6; test: SPR Biacore T100, antibody captured on protein A, LAG-3 ECD-His6 analyte, 25 C, 1:1 model, geometric mean of 3 runs
Protocol: as §1, §2, §3

B1: H5L7BW (antibody, human IgG1, kappa, V domains shown)
VH: QVQLQESGPGLVKPSETLSLTCTVSGFSLTAYGVNWIRQPPGKGLEWIGMIWDDGSTDYDSALKSRVTISVDTSKNQFSLKLSSVTAADTAVYYCAREGDVAFDYWGQGTLVTVSS
VL: DIQMTQSPSSLSASVGDRVTITCKSSQSLLNPSNQKNYLAWYQQKPGKAPKLLVYFASTRDSGVPSRFSGSGSGTDFTLTISSLQPEDFATYYCLQHFGTPPTFGQGTKLEIKR
notes: Afucosylated form of H5L7: plasmids encoding H5L7 expressed in the BioWa Potelligent (FUT8 knock-out CHO) cell line; also called afucosylated H5L7BW
EC50, depletion of antigen specific CD4 T cells by ADCC (primary human T cells, autologous NK cells) [1]: 14 pg/mL and 3.4 ng/mL | EC50, depletion of antigen specific LAG-3 positive CD8 T cells by ADCC [1]: 0.122 ng/mL and 17.5 ng/mL | KD ratio (H5L7BW against H5L7) [2]: 1.05 | kd ratio (H5L7BW against H5L7) [3]: 1.12 | Kd [4]: 0.021 nM | Kd [5]: 0.024 nM | koff [6]: 0.00441 s⁻¹
